Target: Hsp70 (385–641) (UniProt P0DMV8)
Test: ITC; TA Instruments NanoITC, 25 °C, stir speed 600 rpm; 350 µM WT or S20E CHIP titrated into 50 µM Hsp70 (385–641), twenty-four 2 µL injections; triplicate

UniProt P0DMV8, sequence (P0DMV8 385-641): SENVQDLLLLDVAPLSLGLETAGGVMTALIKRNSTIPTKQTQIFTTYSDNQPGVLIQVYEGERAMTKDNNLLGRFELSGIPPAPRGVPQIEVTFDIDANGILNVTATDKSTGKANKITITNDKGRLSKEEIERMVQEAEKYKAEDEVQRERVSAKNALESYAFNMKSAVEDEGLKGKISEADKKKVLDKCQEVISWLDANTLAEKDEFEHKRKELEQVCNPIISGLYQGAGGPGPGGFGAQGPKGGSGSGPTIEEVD

dH | Substance
-7.67 kcal/mol | Recombinant human CHIP S20E (phosphomimetic) (from UniProt Q9UNE7 1-303) (natural protein)
-6.31 kcal/mol | Recombinant human CHIP wild type (from UniProt Q9UNE7 1-303) (natural protein)

Source: PMC7575552
